In doi:10.1101/2023.10.24.563883:

Target: LPHN2-ICL1-Nluc (UniProt O95490)
Assay: FRET or BRET

LPHN2-ICL1-Nluc, sequence (O95490 26-1459): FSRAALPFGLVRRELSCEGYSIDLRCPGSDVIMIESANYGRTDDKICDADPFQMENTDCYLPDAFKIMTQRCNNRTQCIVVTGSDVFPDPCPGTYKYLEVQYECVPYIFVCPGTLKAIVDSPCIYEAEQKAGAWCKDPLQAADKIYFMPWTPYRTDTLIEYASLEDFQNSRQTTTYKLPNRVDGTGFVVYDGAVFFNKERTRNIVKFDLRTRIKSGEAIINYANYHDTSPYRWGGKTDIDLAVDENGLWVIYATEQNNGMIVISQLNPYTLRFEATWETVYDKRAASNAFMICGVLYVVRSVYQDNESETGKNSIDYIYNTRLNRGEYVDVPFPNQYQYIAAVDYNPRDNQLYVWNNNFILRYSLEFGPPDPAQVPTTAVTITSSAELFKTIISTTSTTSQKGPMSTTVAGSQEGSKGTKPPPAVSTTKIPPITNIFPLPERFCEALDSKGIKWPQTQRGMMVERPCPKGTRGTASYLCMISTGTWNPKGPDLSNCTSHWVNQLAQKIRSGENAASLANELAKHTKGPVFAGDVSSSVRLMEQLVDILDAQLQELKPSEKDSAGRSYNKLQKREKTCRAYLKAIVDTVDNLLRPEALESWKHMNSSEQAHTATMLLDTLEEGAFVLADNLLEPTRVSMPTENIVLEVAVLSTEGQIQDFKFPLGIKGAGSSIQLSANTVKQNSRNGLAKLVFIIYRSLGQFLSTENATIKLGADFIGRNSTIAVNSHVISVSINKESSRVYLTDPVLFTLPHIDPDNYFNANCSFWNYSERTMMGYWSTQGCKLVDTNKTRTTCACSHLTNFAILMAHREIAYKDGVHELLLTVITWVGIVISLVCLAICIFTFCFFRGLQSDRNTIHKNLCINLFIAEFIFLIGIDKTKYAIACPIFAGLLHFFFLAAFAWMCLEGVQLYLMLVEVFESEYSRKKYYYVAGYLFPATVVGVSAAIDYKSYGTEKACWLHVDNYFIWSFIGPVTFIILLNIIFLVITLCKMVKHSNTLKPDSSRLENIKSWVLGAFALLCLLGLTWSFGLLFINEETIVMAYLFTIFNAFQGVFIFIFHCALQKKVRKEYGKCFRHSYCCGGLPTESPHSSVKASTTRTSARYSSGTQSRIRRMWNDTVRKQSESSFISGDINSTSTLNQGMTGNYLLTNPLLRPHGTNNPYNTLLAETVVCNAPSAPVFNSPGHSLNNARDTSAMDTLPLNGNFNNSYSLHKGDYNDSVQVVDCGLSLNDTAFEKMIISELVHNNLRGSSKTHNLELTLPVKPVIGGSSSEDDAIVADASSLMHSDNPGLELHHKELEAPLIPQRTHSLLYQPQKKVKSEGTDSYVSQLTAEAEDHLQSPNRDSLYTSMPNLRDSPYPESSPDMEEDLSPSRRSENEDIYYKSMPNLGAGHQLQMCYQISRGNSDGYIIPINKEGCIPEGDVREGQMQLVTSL

EC50 of force for the increase of the BRET signal: 5.2 pN | stoichiometry N (TMC1 per LPHN2): 2
Substance: TMC1-C-YFP (from UniProt Q8TDI8 1-760) (natural protein)
